T1: cynomolgus monkey IL-2Rβ/CD122 subunit (cynomolgus monkey) (UniProt Q38J85)
T1 sequence (looked up): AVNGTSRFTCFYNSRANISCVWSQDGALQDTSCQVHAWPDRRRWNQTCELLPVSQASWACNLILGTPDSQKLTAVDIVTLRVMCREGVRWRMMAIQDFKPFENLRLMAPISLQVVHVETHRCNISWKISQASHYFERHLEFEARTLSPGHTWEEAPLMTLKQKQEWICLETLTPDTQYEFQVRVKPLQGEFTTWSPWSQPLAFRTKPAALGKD

T2: human interleukin-2 receptor β-chain (IL-2Rβ; CD122), recombinant protein (human) (UniProt P14784)
T2 sequence: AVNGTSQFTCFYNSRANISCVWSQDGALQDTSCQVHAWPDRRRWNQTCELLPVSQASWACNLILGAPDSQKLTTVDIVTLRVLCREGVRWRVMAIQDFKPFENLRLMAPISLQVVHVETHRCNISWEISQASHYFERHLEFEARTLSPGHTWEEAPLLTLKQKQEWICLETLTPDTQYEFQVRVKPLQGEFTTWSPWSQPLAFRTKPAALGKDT

T3: mouse IL-2Rβ (mouse) (UniProt P16297)
T3 sequence (looked up): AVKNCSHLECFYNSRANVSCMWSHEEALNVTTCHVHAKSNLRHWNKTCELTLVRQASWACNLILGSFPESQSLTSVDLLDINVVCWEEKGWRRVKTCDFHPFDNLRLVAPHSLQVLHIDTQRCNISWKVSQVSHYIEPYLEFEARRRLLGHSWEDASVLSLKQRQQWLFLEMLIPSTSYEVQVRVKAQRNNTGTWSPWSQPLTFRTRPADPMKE

T4: mouse IL-2Rα (mouse) (UniProt P01590)
T4 sequence (looked up): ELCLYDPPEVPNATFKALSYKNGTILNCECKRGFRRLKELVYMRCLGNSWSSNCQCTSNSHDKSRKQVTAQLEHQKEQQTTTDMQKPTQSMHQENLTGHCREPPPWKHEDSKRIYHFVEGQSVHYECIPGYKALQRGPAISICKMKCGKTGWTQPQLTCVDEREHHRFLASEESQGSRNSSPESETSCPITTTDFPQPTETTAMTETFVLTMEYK

T5: human common cytokine receptor γ-chain (γc; IL-2Rγ; CD132), recombinant protein (human) (UniProt P31785)
T5 sequence: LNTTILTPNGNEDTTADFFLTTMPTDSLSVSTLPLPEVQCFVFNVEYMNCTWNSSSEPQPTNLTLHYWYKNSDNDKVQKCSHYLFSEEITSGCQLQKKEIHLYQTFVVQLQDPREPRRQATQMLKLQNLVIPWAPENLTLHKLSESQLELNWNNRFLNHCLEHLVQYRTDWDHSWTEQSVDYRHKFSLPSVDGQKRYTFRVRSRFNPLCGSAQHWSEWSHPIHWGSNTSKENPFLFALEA


Legend:
[1] = molecular target: T1, cynomolgus monkey IL-2Rβ/CD122 subunit (cynomolgus monkey); test: ELISA, monovalent VHH-hFc
[2] = molecular target: T2, human interleukin-2 receptor β-chain (IL-2Rβ; CD122), recombinant protein (human); test: ELISA, monovalent VHH-hFc
[3] = molecular target: T1, cynomolgus monkey IL-2Rβ/CD122 subunit (cynomolgus monkey); test: ELISA, monovalent; EC50 cyno vs human subunit
mouse IL-2Rβ (mouse) = molecular target: T3, mouse IL-2Rβ (mouse); test: P.E. binding ELISA
mouse IL-2Rα (mouse) = molecular target: T4, mouse IL-2Rα (mouse); test: P.E. binding ELISA
[4] = molecular target: cynomolgus monkey IL-2Rγ/CD132 subunit (cynomolgus monkey); test: ELISA, monovalent VHH-hFc
[5] = molecular target: T5, human common cytokine receptor γ-chain (γc; IL-2Rγ; CD132), recombinant protein (human); test: ELISA, monovalent VHH-hFc

cynomolgus monkey IL-2Rγ/CD132 subunit (cynomolgus monkey), sequence (chain, as listed by the source): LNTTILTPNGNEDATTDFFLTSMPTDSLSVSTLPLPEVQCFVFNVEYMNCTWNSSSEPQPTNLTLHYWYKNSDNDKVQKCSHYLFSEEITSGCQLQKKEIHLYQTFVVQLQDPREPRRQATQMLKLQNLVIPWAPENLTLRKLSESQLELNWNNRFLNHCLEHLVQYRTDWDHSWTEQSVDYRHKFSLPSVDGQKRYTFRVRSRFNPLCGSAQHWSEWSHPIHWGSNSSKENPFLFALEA

EC50 [1] [nM] | EC50 [2] [nM] | Fold change [3] [fold] | OD450 nm (mouse IL-2Rβ (mouse)) [OD450 nm] | other results | Binder
0.657 | 0.206 | 3.2 |  |  | 24-MP06E05 VHH-hFc, monospecific monovalent (Fc fusion, part only; not given: Both Fc arms and linker, not shown: another chain or arm of the molecule; a dimerising Fc or GST; large carriers; small tags and cut ends) VHH: QVQLVESGGELVQGGASLRLSCAASGRTFSNANMAWFRQAPEKEREFVALITWSSGSTLYADSVKGRFTISRDNARKMVYLQMNSLKPEDTAVYYCAADGPPYSGTYYRYDTYDYWGQGTQVTVSS
 |  |  | 0.046 |  | 24-MP06E05 VHH (periplasmic extract) (VHH) VHH: QVQLVESGGELVQGGASLRLSCAASGRTFSNANMAWFRQAPEKEREFVALITWSSGSTLYADSVKGRFTISRDNARKMVYLQMNSLKPEDTAVYYCAADGPPYSGTYYRYDTYDYWGQGTQVTVSS
 |  |  |  | OD450 nm (mouse IL-2Rα (mouse)): 0.046 OD450 nm | 3-MP01E03 VHH (periplasmic extract) (VHH) VHH: QVQLVESGGGLVQAGGSLRLSCTASGRTLSSYSMAWFRQAADKGREFVTAISSSGVVTHVLDSVKGRFTISRDNAKNTVYLQMNSLQPEDTALYFCAGTASSYSTYEANYNYWGQGTLVTVSS
 |  |  | 0.049 |  | 19-MP03F08 VHH (periplasmic extract) (VHH) VHH: EVQLVESGGGLVQTGGSLRLSCAASGGTFSRDAMAWFRQVPGKEREFVALISWSGATTNYADSVKGRFAISRDNGKNTVYLQMNRLKPADTAIYYCAADRRPMGSRSYFEPTEYDDWGQGTQVTVSS
0.953 | 0.67 | 1.4 |  |  | 19-MP03F08 VHH-hFc, monospecific monovalent (Fc fusion, part only; not given: Both Fc arms and linker, not shown: another chain or arm of the molecule; a dimerising Fc or GST; large carriers; small tags and cut ends) VHH: EVQLVESGGGLVQTGGSLRLSCAASGGTFSRDAMAWFRQVPGKEREFVALISWSGATTNYADSVKGRFAISRDNGKNTVYLQMNRLKPADTAIYYCAADRRPMGSRSYFEPTEYDDWGQGTQVTVSS
 | 0.197 |  |  |  | 20-MP03F10 VHH-hFc, monospecific monovalent (Fc fusion, part only; not given: Both Fc arms and linker, not shown: another chain or arm of the molecule; a dimerising Fc or GST; large carriers; small tags and cut ends) VHH: EVQLVESGGGLVQAGGSLRLSCAASGRDFSSYAMGWFRQAPGKEREFVVAITWTKRSTDFPDSVKGRFTISRDNAKNTVYLDMNSLKPEDTAVYYCASARGLPVTPLGDIIYWGEGTLVTVSS
 |  |  | 0.048 |  | 20-MP03F10 VHH (periplasmic extract) (VHH) VHH: EVQLVESGGGLVQAGGSLRLSCAASGRDFSSYAMGWFRQAPGKEREFVVAITWTKRSTDFPDSVKGRFTISRDNAKNTVYLDMNSLKPEDTAVYYCASARGLPVTPLGDIIYWGEGTLVTVSS
0.156 | 0.092 | 1.7 |  |  | 22-MP03F12 VHH-hFc, monospecific monovalent (Fc fusion, part only; not given: Both Fc arms and linker, not shown: another chain or arm of the molecule; a dimerising Fc or GST; large carriers; small tags and cut ends) VHH: EVQLVESGGGLVQAGGSLRLSCAASGSIFSINAMAWFRQVPGMERELVAAISRDGGASVYRDSVKGRFTISRDNSKNTVYLQMNTLKPEDTAIYVCAATRAIGWTARWITTDFDFWGQGTQVTVSS
 |  |  | 0.048 |  | 22-MP03F12 VHH (periplasmic extract) (VHH) VHH: EVQLVESGGGLVQAGGSLRLSCAASGSIFSINAMAWFRQVPGMERELVAAISRDGGASVYRDSVKGRFTISRDNSKNTVYLQMNTLKPEDTAIYVCAATRAIGWTARWITTDFDFWGQGTQVTVSS
 |  |  |  | OD450 nm (mouse IL-2Rα (mouse)): 0.048 OD450 nm | 1-MP01H01 VHH (periplasmic extract) (VHH) VHH: EVQLVESGGGLVQAGGSLRLSCAASGRTFRTHNMGWFRRAPGKEREFVAAISWNVDNTLYADSVKGRFTISRDNGRNMVYLQMNSLKPEDTAVYYCAADNIPLSSDVAATATEYDYWGQGTQVTVSS
0.26 | 0.174 | 1.5 |  |  | 23-MP06F03 VHH-hFc, monospecific monovalent (Fc fusion, part only; not given: Both Fc arms and linker, not shown: another chain or arm of the molecule; a dimerising Fc or GST; large carriers; small tags and cut ends) VHH: QVQLVESGGGLVQAGGSLRLSCAVSGDVFVRYTMAWFRQAPGKEREFVASVTDSGRTTDYVHSVKGRFTVSRDNAKNTVYLQMNNLKPEDTAVYYCAANTDYFQIKSLDANTWGQGTQVTVSS
0.102 | 0.086 | 1.2 |  |  | 26-MP06A07 VHH-hFc, monospecific monovalent (Fc fusion, part only; not given: Both Fc arms and linker, not shown: another chain or arm of the molecule; a dimerising Fc or GST; large carriers; small tags and cut ends) VHH: QVQLQESGGGLVQAGGSLRLSCAASGDVFVRYTMAWFRQAPGKEREFVASVTDSGRTTEYVDSVKGRFTVSRDNAKNTAYLQMNNLKPEDTAIYYCAANTDYFQIRSLDLNTWGQGTQVTVSS
 |  |  |  | OD450 nm (mouse IL-2Rα (mouse)): 0.046 OD450 nm | 5-MP01F05 VHH (periplasmic extract) (VHH) VHH: EVQLVESGGGLVQAGGSLRLSCAASIRAFTTWSMAWFRQAPGKEREYVARINVSGSVTYYADFVKGRFTISRDNAKKTMYLEMNNLKPEDTALYYCAADRTGVGTNDYNYWGQGTQVTVSS
 |  |  | 0.047 |  | 17-MP02C09 VHH (periplasmic extract) (VHH) VHH: QVQLQESGGGLVQAGGSLRLSCVASGSVSSINGMAWYRQGADNQRVLVAAISRVGNTAYGDSVKGRFTISRQNARNTVYLQMNSLKPEDTAVYYCNADSWGGDDYWGQGTQVTVSS
0.495 | 0.148 | 3.3 |  |  | 17-MP02C09 VHH-hFc, monospecific monovalent (Fc fusion, part only; not given: Both Fc arms and linker, not shown: another chain or arm of the molecule; a dimerising Fc or GST; large carriers; small tags and cut ends) VHH: QVQLQESGGGLVQAGGSLRLSCVASGSVSSINGMAWYRQGADNQRVLVAAISRVGNTAYGDSVKGRFTISRQNARNTVYLQMNSLKPEDTAVYYCNADSWGGDDYWGQGTQVTVSS
0.28 | 0.215 | 1.3 |  |  | 16-MP02B08 VHH-hFc, monospecific monovalent (Fc fusion, part only; not given: Both Fc arms and linker, not shown: another chain or arm of the molecule; a dimerising Fc or GST; large carriers; small tags and cut ends) VHH: EVQLVESGGGLVQAGGSLRLSCAASGRAIENYPVGWFRQAPGKEREFVAAITWISGSTLYADSVKGRFTISRDNAKNTVYLQMSSLKPEDTALYYCAAALKTITRGQNDYSYWGQGTQVTVSS
 |  |  | 0.048 |  | 16-MP02B08 VHH (periplasmic extract) (VHH) VHH: EVQLVESGGGLVQAGGSLRLSCAASGRAIENYPVGWFRQAPGKEREFVAAITWISGSTLYADSVKGRFTISRDNAKNTVYLQMSSLKPEDTALYYCAAALKTITRGQNDYSYWGQGTQVTVSS
 |  |  |  | OD450 nm (mouse IL-2Rα (mouse)): 0.046 OD450 nm | 6-MP01G05 VHH (periplasmic extract) (VHH) VHH: QVQLQESGGGLVQAGGSLRLSCAASGRTFSSYAMGWFRQAPGKEREFVAVISWNVDNTEYTDSVKGRFTISRDNDKNMVYLQMNSLKPEDTAVYYCAADSIPLSSDMSPTATEYGYWGQGTQVTVSS
 |  |  | 0.048 |  | 18-MP03C03 VHH (periplasmic extract) (VHH) VHH: QVQLVESGGGLVQPGGSLRLSCAISGGTLDSYGIGWVRQAPGKQREGVSCMSRSDDRTYYADSVKGRFTISKDSAKNTVYLQMTSLKPEDTAVYYCAAVDAYGCSLVQPTTYDFWGLGTQVTVSS
 |  |  |  | EC50 [4]: 0.222 nM; EC50 [5]: 0.145 nM | 36-MP07F02 VHH-hFc, monospecific monovalent (Fc fusion, part only; not given: Both Fc arms and linker, not shown: another chain or arm of the molecule; a dimerising Fc or GST; small tags and cut ends) VHH: QVQLVESGGGLVQAGGSLRLSCAASGRTLSRYAMGWFRQAPGSEREFVAASSWGGDTFYADSVEGRFTFSRDNAKNAVYLQMNSLQPEDTAAYYCAAAPTSFPTTAYSSSNSYAYWGQGTQVTVSS
 |  |  |  | OD450 nm (mouse IL-2Rα (mouse)): 0.046 OD450 nm | 2-MP01A02 VHH (periplasmic extract) (VHH) VHH: QVQLVESGGGLVQPGGSLRLSCATSGFTFRNNFMSWVRQAPGKGLEWVSTISYGGESTTYAESVKGRFTISRDNAKNTLYLQMNNLKPEDTAVYYCAKATSYDSIRSGSRGQGTQVTVSS
 |  |  |  | OD450 nm (mouse IL-2Rα (mouse)): 0.045 OD450 nm | 8-MP01C12 VHH (periplasmic extract) (VHH) VHH: QVQLVESGGGLVQPGGSLRLSCATSGFTFSNNFMSWVRQAPGKGLEFVSTISYGGESTTYAEAVKGRFTISRDNAKNTLYLQMNNLKPEDTAIYYCAKATSYTSIRGAPRGQGTQVTVSS
 |  |  | 0.048 |  | 15-MP02E06 VHH (periplasmic extract) (VHH) VHH: QVQLVESGGGSVQPGGSLRLSCAASGFTFSNYAMSWVRQAPGKGLEWVASITGFGRGTDYADSVKGRFTISRDNAEDTLYLQMNSLKPEDTAVYYCAKYSSSTYYPPTPARGRDYRGQGTQVTVSS

Source: patent publication US20240409645A1
